According to publication PMC6629437 (Cell, 2019):

Experiments:
[1] = target: H1 HA of A/California/04/2009, His-tagged soluble HA (competition assay) (Influenza A virus A/California/04/2009 …, UniProt C3W5S1, strain); test: BLI
[2] = target: T1, HA head domain of H1 A/Solomon Islands/3/2006 (Influenza A virus A/Solomon …, strain); test: BLI
T1 chain: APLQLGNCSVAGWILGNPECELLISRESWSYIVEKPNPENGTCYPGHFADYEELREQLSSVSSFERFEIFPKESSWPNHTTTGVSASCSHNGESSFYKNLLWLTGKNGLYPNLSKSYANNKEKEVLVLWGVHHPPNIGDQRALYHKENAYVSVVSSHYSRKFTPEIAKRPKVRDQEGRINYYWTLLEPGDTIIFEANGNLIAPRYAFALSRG

[3] = target: HA head domain of H3 A/Victoria/361/2011 (Influenza A virus A/Victoria/361/2011 …, UniProt A0A097PF39, strain); test: BLI
[4] = target: HA head domain of H7 A/Shanghai/02/2013 (Influenza A virus A/Shanghai/02/2013 …, UniProt R4NN21, strain); test: BLI
[5] = target: H7 HA of A/New York/107/2003 (Influenza A virus A/New York/107/2003 …, UniProt B2LVD7, strain); test: ELISA
[6] = target: monomeric HA head domain of H5 A/Vietnam/1203/2004 (Influenza A virus A/Vietnam/1203/2004 …, UniProt Q5EP31, strain); test: HDX-MS
[7] = target: H1 HA0 trimer of A/California/04/2009 (uncleaved, baculovirus-expressed ectodomain) (influenza A virus A/California/04/2009 …); test: BLI
[8] = target: H7 HA0 trimer of A/Shanghai/02/2013 (uncleaved, baculovirus-expressed ectodomain) (Influenza A virus A/Shanghai/02/2013 …, UniProt R4NN21, strain); test: BLI
[9] = target: HA head domain of H3 A/Hong Kong/1/1968 (Influenza A virus A/Hong Kong/1/1968 …, strain); test: crystal structure
H1 HA of A/Texas/36/1991 = H1 HA of A/Texas/36/1991 (Influenza A virus A/Texas/36/1991 (H1N1), UniProt Q6WG02, strain); test: ELISA
[10] = target: H5 HA of A/Indonesia/5/2005 (Influenza A virus A/Indonesia/5/2005 …, UniProt A5A5L7, strain); test: ELISA

Measured: binding result

B1: FluA-20 IgG (hybridoma-generated) (antibody, V domains shown)
VH: QVQLEESGPGLVKPSETLSLTCSVSGVSVTSDIYYWTWIRQPPGKGLEWIGYIFYNGDTNYNPSLKSRVTMSIDTSKNEFSLRLTSVTAADTAVYFCARGTEDLGYCSSGSCPNHWGQGTLVTVSS
VL: DIVMTQSPSSLSASIGDRVTITCRPSQNIRSFLNWFQHKPGKAPKLLIYAASNLQSGVPSRFSGSGSGTEFTLTIRSLQPEDFATYYCQQSYNTPPTFGQGTKVEIK
binds: [1] | [2] | [3] | [4] | [5] | [6]

B2: rFluA-20 Fab (Fab, V domains shown)
VH: QVQLEESGPGLVKPSETLSLTCSVSGVSVTSDIYYWTWIRQPPGKGLEWIGYIFYNGDTNYNPSLKSRVTMSIDTSKNEFSLRLTSVTAADTAVYFCARGTEDLGYCSSGSCPNHWGQGTLVTVSS
VL: DIVMTQSPSSLSASIGDRVTITCRPSQNIRSFLNWFQHKPGKAPKLLIYAASNLQSGVPSRFSGSGSGTEFTLTIRSLQPEDFATYYCQQSYNTPPTFGQGTKVEIK
binds: [7] | [8] | [9]

B3: rFluA-20 IgG (recombinant FluA-20 IgG) (antibody, V domains shown)
VH: QVQLEESGPGLVKPSETLSLTCSVSGVSVTSDIYYWTWIRQPPGKGLEWIGYIFYNGDTNYNPSLKSRVTMSIDTSKNEFSLRLTSVTAADTAVYFCARGTEDLGYCSSGSCPNHWGQGTLVTVSS
VL: DIVMTQSPSSLSASIGDRVTITCRPSQNIRSFLNWFQHKPGKAPKLLIYAASNLQSGVPSRFSGSGSGTEFTLTIRSLQPEDFATYYCQQSYNTPPTFGQGTKVEIK
binds: [5] | H1 HA of A/Texas/36/1991 | [10]
